In assay [1] the target is T1, hemagglutinin (HA) of influenza A/Solomon Islands/3/06 H1N1 (Influenza A virus A/Solomon …). In words: cell-based or functional assay.
Assay [2] deals with T1, hemagglutinin (HA) of influenza …. In words: ELISA, inactivated whole virions coated; transfection supernatant set 5. For orientation: An ELISA detects its analyte on a solid surface through an enzyme-linked reagent.
Assay [3] addresses hemagglutinin (HA) of influenza A/Japan/305/57 H2N2 (Influenza A virus A/Japan/305/1957 …, UniProt P03451 16-562). The assay is described as above.

B1: TCN-546 (5089_L08) (antibody, V domains shown)
VH: QVQLQQWGAGLLKPSETLSLTCGVYGGSLSDYYWSWIRQPPGKGLEWIGEINHSGGTNYNPSLKRRVTISVDTSKKQFSLKMNSVTAADTAVYYCARGTDPDTEVYCRAGNCAAFDFWGQGTLVTVSS
VL: EIVLTQSPGTLSLSPGERATLSCRASHFVIGRAVAWYQQKPGQAPRLLIYGASSRATGIPDRFSGSGSGTDFTLTISRLETEDFAVFYCQHYGSSPRYAFGQGTKLEIK
For the molecule B1, the “% Neutralization” value in assay [1] turned out to be 0%. In addition, the values for the OD450 in assay [2] and in assay [3] were 3.67 OD450 and 0.07 OD450, respectively.

B2: TCN-549 (5092_P04) (antibody, V domains shown)
VH: QVQLVQSGAEVKKPGASVKVSCKASGYTFTGYYMHWVRQAPGQGLEWMGWINPNSGDTNYAQKFQGRVTMTRDTSITTAYMELSSLRSDDTAVYYCARDSPYSSSWSFFDYWGQGPLVTVSS
VL: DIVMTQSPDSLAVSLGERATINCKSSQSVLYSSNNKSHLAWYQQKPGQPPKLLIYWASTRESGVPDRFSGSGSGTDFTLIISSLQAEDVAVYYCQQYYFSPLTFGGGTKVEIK
Regarding B2, the OD450 in assay [2] was 0.09 OD450; in assay [3] it was 0.08 OD450.

B3: TCN-551 (5243_D01) (antibody, V domains shown)
VH: EVQLVQSGSEVKKPGESLKISCKGSGYSFSNYWIGWVRHMPGKGLEWMGIIYPGDSDTRYSPSFQGQVTMSADKSSSTVYLQWSSLKASDTAIYYCARRGGHSFGYGSGGDTHSEFDSWGQGTLVTVSS
VL: QSVLTQSPSVSAAPGQKVTISCSGSDSNIGDYFVCWYQHLPGKPPQLLIYENNKRPSGIPDRFSGSKSGTSATLGITGIQTGDEADYYCATWDGSLSAWVFGGGTKLTVL
For B3, the “% Neutralization” value in assay [1] was determined as 100%. Further, the OD450 in assay [2] was 3.65 OD450.

B4: TCN-558 (5248_H10b) (antibody, V domains shown)
VH: QVQLVQSGSEVKKPGTSVKVSCTASGSVFTNYGISWVRQAPGQGLEWMGGIIPLFGAAKYAQKFQGRVTITADESTKTVYMELSRLTSKDTAIYFCAKAPRVYEYYFDQWGQGTPVTVSS
VL: EIVMTQFPATLSVSPGERVTLSCRASQSVSNNLAWYQQKPGQPPRLLIYDASTRATGVPAKFSGTGSGTEFTLSISSLQSEDFAVYYCQQYHNWPPSYSFGLGTKLEIK
With B4, the OD450 in assay [2] was found to be 3.52 OD450; in assay [3], 3.31 OD450.

B5: TCN-540 (5060_F05) (antibody, V domains shown)
VH: QVQLVQSGGGVVQPGRSLRLSCAASGFTFSSYAMHWVRQAPGKGLEWVAIISYDGNDQYYTDSVKGRFTISRDSSKVYLQMHRLRPEDTAVYYCAKEFETSGYFHGSFDYWGQGILVTVSS
VL: QSALTQPASVSGSPGQSITISCTGTSSDVGGYNYVSWYQQHPGKAPKLLIYEVTNWPSGVSNRFSGSKSGNTASLTISGLQAEDEADYYCSSYAGSSTWVFGGGTRVTVL
Consider B5, for which, in assay [1], the “% Neutralization” value was found to be 100%. The OD450 came to 0.09 OD450 in assay [2] and 3.61 OD450 in assay [3].

B6: TCN-537 (3194_D21) (antibody, V domains shown)
VH: QVQLQQWGSGLLKPSETLSLTCAVYGGSFRDDYWTWIRQPPGKGLEWIGEINHSGRTNYNPSLKSRVTISVDTSLKQFSLKVISVTAADTAVYYCARGTSHVSRYFDWLPPTNWFDPWGQGTQVTVSS
VL: DIVLTQSPGTLSLSPGERATLSCRASQSVSSSYLAWYQQKPGQAPRLVMYGAATRATGIPDRFSGSGSGPDFTLTISRLEPEDFAMYYCQQYGNSPITFGQGTRLEIK
For B6, in assay [1], the “% Neutralization” value is 89%. The OD450 in assay [2] is 3.56 OD450; in assay [3] it was 3.48 OD450.

B7: TCN-547 (5092_F11) (antibody, V domains shown)
VH: QVQLQESGPGLVKPSQTLSLTCTVSGDSISSVDHYWSWIRQHPVKGLEWIGFMYYSASTYYNPSLKSRVTISTDTSKNQFSLRLSSVTAADTAVYYCARGTCAGDCSLHYYYYGLDVWGQGRTVTVSS
VL: DIQMTQSPSSLSASVGDRVTITCRASQSISSYLNWYQHKPGKAPKVLMYAVSILQSGVPSRFSGSGSGADFTLTISSLQPEDFATYYCQQSYSSPLTFGGGTKVEIK
As for B7, the OD450 in assay [2] and in assay [3] was 0.09 OD450 in each case.

B8: TCN-552 (5249_I23) (antibody, V domains shown)
VH: QVQVVQSGAEVKKPGSSVRVSCQASGGTFMNYAIIWVRRAPGQGLEWMGGIIPVFPTPNYAQMFQGRVTISTDESRSTSFLELTNLRYEDTAVYYCARRIYHGGNSGFDFWGQGTLVTVSS
VL: EIVLTQSPATLSLSPGERATLSCRASQSVGNYLAWYQQKPGQAPRLLIYDSSNRAPGIPARFSGSGSGTDFTLTISSLAPEDFAVYYCQQRSKWPPMYSFGHGTKLEIK
For the molecule B8, the “% Neutralization” value in assay [1] turned out to be 57%. For the same molecule, the OD450 in assay [2] stood at 3.61 OD450; in assay [3], 2.68 OD450.

B9: TCN-538 (3206_O17) (antibody, V domains shown)
VH: QITLKESGPTLVKPTQTLTLTCVFSGFSLSITGVRVGWIRQPPGKALEWLALISWDDEKHYSPSLQSRLTITKDTSKNQVVLTMTNLDPVDTATYYCARSTDRGHVLRYFGWMLPGDAFDVWGQGTMVTVSS
VL: DIVMTQSPDFLPVSLGERATINCKSSQRVLYSSNNKNYLAWYQLKPGQPPKLIIYWASTRESGVPDRFSGSGSGTEFTLTISSLQAEDVAVYYCQQYYSRPYTFGQGTKLEIK
As for B9, in assay [1], the “% Neutralization” value worked out at 35%. Besides, the values for the OD450 in assay [2] and in assay [3] were 3.59 OD450 and 3.37 OD450, respectively.

B10: TCN-548 (5092_P01) (antibody, V domains shown)
VH: QVQLQESGPGLVKPSETLSLTCTVSSGPMSDYYWSWIRQPPGKGLEWIGHVSVSHGGRTKSNPSVMSRVTISVETSKNQFSLKLTSVTAADTAVYYCARLNYYDRSGYHSPDGPSNNWFDPWGQGTLVTVSS
VL: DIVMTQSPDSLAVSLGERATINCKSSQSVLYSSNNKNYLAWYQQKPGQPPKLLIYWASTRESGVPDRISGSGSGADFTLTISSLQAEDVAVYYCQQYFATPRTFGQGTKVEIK
B10: the figures for the OD450 in assay [2] and in assay [3] were 0.13 OD450 and 0.09 OD450, respectively.

B11: TCN-557 (5081_A04) (antibody, V domains shown)
VH: QVQLVQSGAEVKKPGASVKVSCKASGHTFTGYYIHWVRQAPGQGLEWMGWINPDSGATSSAQNFQGRVTMTGDTSSSTAYMELSRLSFDDTAVYYCARVLFTSPFDFWGEGTLVTVSS
VL: QAVVTQEPSLAVSPGGTVTLTCGSSTGAVTRGHYPYWFQQKPGQAPRALIYDSAGNRHSWTPARFSGSLLGGKAALTLSGAQPEDEAEYYCLLSYSGVWVFGGGTKLTVL
With B11, the OD450 in assay [2] came to 3.58 OD450; in assay [3], 3.59 OD450.

B12: TCN-545 (5082_I15) (antibody, V domains shown)
VH: QVQLQQWGAGLLKPSETLSLSCAVFGGSFSDYYWTWIRQPPGKGLEWIGEIKHSGRTNYNPSLESRVTISVDTSKNQFSLKLSSVTAADTAIYYCARGTDPDTEGYCRSGSCSAFDFWGQGTLVTVSS
VL: EIVLTQSPGTLSLSPGERATLSCRASHFVNYRSLAWYQQTPGQVPRLLIYGASTRATGIPDRFSGSGSGTDFTLTISRLEPEDFAVYFCQQYGGSPRYTFGQGTRLEIK
Take B12: the “% Neutralization” value in assay [1] worked out at 98%. The OD450 in assay [2] amounted to 1.36 OD450; in assay [3], 0.1 OD450.

B13: TCN-543 (5081_G23) (antibody, V domains shown)
VH: QVHLVQSGAEVRKPGDSVKVSCKTSGYTFSTYPVAWVRQVPGQGLEWMGWISTYNGNTNFAQNFQGRVTLTTDTTTNTAYMEVRSLKFDDTAVYYCARVEGSYRDFWNNQNRFDPWGQGTLVTVSS
VL: SYVLTQPPSVSVAPGQTARISCGGSNIGGKSVHWYQQKPGQAPVLVVYDDSGRPSGIPERFSGSNSGDTATLTISRVEAGDEADYFCQVWDNFGGVFGTGTKVTVL
For B13, the “% Neutralization” value in assay [1] stood at 100%. The values for the OD450 in assay [2] and in assay [3] were 3.63 OD450 and 3.64 OD450, respectively.

B14: TCN-550 (5096_F06) (antibody, V domains shown)
VH: QVQLQESGPGLVKPSETLSLTCTVSGASINSHYWSWIRQPPGKGLEWIGYVYYSGSTTYNPSLKSRVTLSVDTSKNQFSLNLSSVTAADTAFYYCARHPYDVLTGSGDWFDPWGQGTLVTVSS
VL: SYVLTQAPSVSVAPGQTARITCGGNAIGSKKVHWYQHKAGQAPVLVVYDDTDRPSGIPERFSGSNSWSTATLTINRVEAGDEADYYCQVWDFTIDHVVFGGGTKLTVL
For the molecule B14, the OD450 in assay [2] turned out to be 0.13 OD450; in assay [3], 0.08 OD450.

B15: TCN-556 (5089_K12) (antibody, V domains shown)
VH: QVQLVQSGAEVKKPGASVKVSCKASGYTFIGYDMHWVRQAPGQGLEWMGWINAKRGGTNYAQKFQGRVTMTRDTSISTAYMELNSLRSDDTAVYYCARGVGSRTTIFGVLNPEFDYWGQGTLVTVSS
VL: QSALTQPPSASGSPGQSVTISCTGSSSDVGGYDYVSWYQQHPGKAPKLLIYEVTKRPSGVPDRFSGSKSGNTASLTVSGLQAEDEADYYCSSYAGNYNHVFGPGTKVTVL
Turning to B15, the OD450 in assay [2] and in assay [3] was 3.64 OD450 in each case.

B16: TCN-544 (5082_A19) (antibody, V domains shown)
VH: QVQLQESGPGLVKPSETLSLTCTVSRGSIGHYFWSWIRQPPGKGLEWIGYISYSGSTKYNPSLRSRVTISVDTSKNQFSLNLNSVTATDTALYYCAREDYDILTGAGPGMEVWGQGTTVTVSS
VL: QSMLTQPPSASGTPGQRVTISCSGSSSNIGSNTVNWFKHLPGTAPKLLIYRNDLRPSGVPDRFSGSKSGTSASLAISGLQSEDEADYYCATWDDSLNGFYVFGTGTKVTVL
In the case of B16, the “% Neutralization” value in assay [1] came to 95%. Further, the OD450 in assay [2] and in assay [3] was 0.07 OD450 throughout.

B17: TCN-542 (5079_A16) (antibody, V domains shown)
VH: QVQLQESGPGLVKPSQTLSLTCTVSGGSISSGNYYWNWVRQHPGKGLEWIGYIYYRGSTFYNPSLKSRVTISIDTSKNQFSLRLSSVTAADTAVYYCAKDTRSSLDNYQYGMDVWGQGTTVTVSS
VL: QTVVTQEPSLTVSPGGTVTLTCASSTGAVTSSYFPNWFQQKPGQAPRPLIYSTTIRHSWTPARFSGSLLGGKAALTLSGVQPEDEADYYCLLYSGGDPVAFGGGTKLTVL
As to B17, the “% Neutralization” value in assay [1] was determined as 98%. Besides, the OD450 in assay [2] was 3.6 OD450; in assay [3] it was 0.07 OD450.

B18: TCN-539 (5056_A08) (antibody, V domains shown)
VH: QVQLVESGGGVVQPGRSLRLSCAASEITFITYAMHWVRQAPGKGLEWVALISDDGSNKFYADSVKGRFTISRDNSKNTLYLQMNSLRAEDTAAYYCAREGVYFDSGTYRGYFDYWGQETLVTVSS
VL: EIVLTQSPATLSLSPGERATLSCRASQSVSSYLAWYQQKPGQAPRLLIYDASNRATGIPARFSGSGSGTDFTLTISSLEPEDFAVYYCQQRSHWPPITFGQGTRLEIK
For the molecule B18, in assay [1], the “% Neutralization” value was 97%. For the same molecule, the OD450 in assay [2] and in assay [3] was 0.07 OD450 in each case.

For the origin of these results see patent US20120207760A1 (THERACLONE SCIENCES, published 2012).
